20 variants from FireProtDB (doi:10.1016/0022-2836(92)90906-z) can be followed below.

The chains are these.
B1: Ribonuclease, P00648 (parent)
chain: MMKMEGIALKKRLSWISVCLLVLVSAAGMLFSTAAKTETSSHKAHTEAQVINTFDGVADYLQTYHKLPDNYITKSEAQALGWVASKGNLADVAPGKSIGGDIFSNREGKLPGKSGRTWREADINYTSGFRNSDRILYSSDWLIYKTTDHYQTFTKIR

The variants in this data set derive from B1. Particulars: Bacillus amyloliquefaciens; pH 6.3; 25 °C; Urea; Fluorescence; MES 1.00 M; NaCl 613 mM; reversible: yes; structure 1BNI; whole UniProt chain shown.

Turning to K74G, the “ddG of mutation (higher = less stable)” value was -0.2 kcal/mol, the denaturant m value came out at 2.11 kcal/mol/M, the “denaturant midpoint (higher = more stable)” value (from here on “denaturant midpoint”) turned out to be 4.29 M and the unfolding free energy was 9 kcal/mol.

For the variant T73D, the “ddG of mutation (higher = less stable)” value was found to be 0 kcal/mol, the denaturant m value stood at 1.95 kcal/mol/M, the “denaturant midpoint” value turned out to be 4.53 M and the unfolding free energy came out at 8.8 kcal/mol.

Take H65R W141L: the “ddG of mutation (higher = less stable)” value came to 1.6 kcal/mol, the denaturant m value stood at 2.06 kcal/mol/M, the “denaturant midpoint” value came to 3.48 M and the unfolding free energy was 7.2 kcal/mol.

For the variant E76G, the “ddG of mutation (higher = less stable)” value was 2.2 kcal/mol, the denaturant m value came out at 1.81 kcal/mol/M, the “denaturant midpoint” value came to 3.64 M and the unfolding free energy came out at 6.6 kcal/mol.

On to E76S, for which the “ddG of mutation (higher = less stable)” value was 1.2 kcal/mol, the denaturant m value stood at 1.93 kcal/mol/M, the “denaturant midpoint” value came to 3.94 M and the unfolding free energy came out at 7.6 kcal/mol.

For the variant E76A, the “ddG of mutation (higher = less stable)” value turned out to be 1.2 kcal/mol, the denaturant m value was determined as 1.94 kcal/mol/M, the “denaturant midpoint” value is 3.93 M and the unfolding free energy came to 7.6 kcal/mol.

Consider H65S W141L, for which the “ddG of mutation (higher = less stable)” value was determined as 2.8 kcal/mol, the denaturant m value came to 1.86 kcal/mol/M, the “denaturant midpoint” value came to 3.24 M and the unfolding free energy was found to be 6 kcal/mol.

S75A: the “ddG of mutation (higher = less stable)” value was -0.6 kcal/mol, the denaturant m value came out at 1.98 kcal/mol/M, the “denaturant midpoint” value was determined as 4.78 M and the unfolding free energy was 9.4 kcal/mol.

Turning to S75G, the “ddG of mutation (higher = less stable)” value was 0.5 kcal/mol, the denaturant m value was 1.88 kcal/mol/M, the “denaturant midpoint” value stood at 4.34 M and the unfolding free energy came out at 8.3 kcal/mol.

Take G81T: the “ddG of mutation (higher = less stable)” value is 3.2 kcal/mol, the denaturant m value amounted to 1.96 kcal/mol/M, the “denaturant midpoint” value came out at 2.84 M and the unfolding free energy is 5.6 kcal/mol.

Turning to G81S, the “ddG of mutation (higher = less stable)” value was 2.9 kcal/mol, the denaturant m value worked out at 2.03 kcal/mol/M, the “denaturant midpoint” value was found to be 2.93 M and the unfolding free energy stood at 5.9 kcal/mol.

With G81D, the “ddG of mutation (higher = less stable)” value was determined as 3.2 kcal/mol, the denaturant m value was determined as 1.99 kcal/mol/M, the “denaturant midpoint” value came to 2.83 M and the unfolding free energy was found to be 5.6 kcal/mol.

On to G81K, for which the “ddG of mutation (higher = less stable)” value amounted to 2.7 kcal/mol, the denaturant m value came out at 2.06 kcal/mol/M, the “denaturant midpoint” value was 2.97 M and the unfolding free energy is 6.1 kcal/mol.

For the variant G81N, the “ddG of mutation (higher = less stable)” value stood at 2.7 kcal/mol, the denaturant m value was 1.94 kcal/mol/M, the “denaturant midpoint” value was 3.16 M and the unfolding free energy turned out to be 6.1 kcal/mol.

Turning to G81A, the “ddG of mutation (higher = less stable)” value amounted to 2.7 kcal/mol, the denaturant m value worked out at 2.06 kcal/mol/M, the “denaturant midpoint” value worked out at 2.97 M and the unfolding free energy came to 6.1 kcal/mol.

As to G81H, the “ddG of mutation (higher = less stable)” value was 2.3 kcal/mol, the denaturant m value is 2.02 kcal/mol/M, the “denaturant midpoint” value worked out at 3.21 M and the unfolding free energy is 6.5 kcal/mol.

Regarding Q78S, the “ddG of mutation (higher = less stable)” value is -0.3 kcal/mol, the denaturant m value is 2.05 kcal/mol/M, the “denaturant midpoint” value is 4.44 M and the unfolding free energy is 9.1 kcal/mol.

For the variant Q78A, the “ddG of mutation (higher = less stable)” value worked out at 0.3 kcal/mol, the denaturant m value was found to be 1.83 kcal/mol/M, the “denaturant midpoint” value was 4.62 M and the unfolding free energy was determined as 8.5 kcal/mol.

For Q78G, the “ddG of mutation (higher = less stable)” value worked out at 1.1 kcal/mol, the denaturant m value was 1.89 kcal/mol/M, the “denaturant midpoint” value came out at 4.07 M and the unfolding free energy is 7.7 kcal/mol.

For the variant H65S, the “ddG of mutation (higher = less stable)” value stood at 2.1 kcal/mol, the denaturant m value was found to be 1.96 kcal/mol/M, the “denaturant midpoint” value is 3.4 M and the unfolding free energy turned out to be 6.7 kcal/mol.
